Measured values published in FireProtDB (doi:10.1021/bi201411c).

Details: Nostoc ellipsosporum, pH 6, 25 °C, GdnHCl, sodium phosphate 20 mM, transition: 2, reversible: yes(90%), whole UniProt chain shown

B1: Cyanovirin-N wild type, P81180 (protein)
chain: LGKFSQTCYNSAIQGSVLTSTCERTNGGYNTSSIDLNSVIENVDGSLKWQPSNFIETCRNTQLAGSSELAAECKTRAQQFVSTKINLDDHIANIDGTLKYE
- denaturant m value (CD): 2 kcal/mol/M
- denaturant midpoint (higher = more stable) (CD): 2.5 M
- denaturant m value (fluorescence): 1.9 kcal/mol/M
- denaturant midpoint (higher = more stable) (fluorescence): 2.6 M
